How the values were obtained:
[1] = target: T1, Spike-GFP (SARS-CoV-2 (Wuhan-Hu-1 reference; …, UniProt P0DTC2); test: immunostaining of cells or tissue; conditions: partners not purified
T1 construct: also called S-GFP

[2] = target: T2, full-length Spike protein of SARS-CoV-2 (SARS-CoV-2 (Wuhan-Hu-1 reference; …, UniProt P0DTC2); test: far-Western, overlay or dot blot; conditions: one partner purified
T2 construct: source: bought: SINOBiological; produced in a baculovirus expression system

B1: intimin-Nanobody fusion of clone W23 (bacterial display) (VHH)
VHH: QVQLVESGGGLVQPGESLRLSCAASGNIFGIAAVHWFRKAPGKEREFTAGFGSDGSTNYANSVKGRFTISRDNAKNTTYLQMNSLKPEDTAVYYCHALIKNELGFLDYWGPGTQVTVSS
notes: also called clone W23 total protein extract
[1]
  binding result: binds
[2]
  binding result: binds

Source: article PMC7870875 (Scientific Reports, 2021)
